{"source": "patent EP4778941A1", "about": "“HER3/MET BINDING MOLECULE AND PHARMACEUTICAL USE THEREOF” (priority 2023, dated 2025)", "key": {"[1]": {"biological_target": "Human HER3 and MET proteins together on HER3/MET double-positive cells (human) (UniProt P21860)", "assay": "cell-based or functional assay"}, "[2]": {"biological_target": "Human HER3 protein on the cell surface (human) (UniProt P21860)", "assay": "cell-based or functional assay"}, "[3]": {"biological_target": "Human HER3 and MET proteins together on HER3/MET double-positive cells (human) (UniProt P21860)", "assay": "cell-based or functional assay", "remark": "listed apart in the source"}, "[4]": {"biological_target": "Human MET protein on the cell surface (human) (UniProt P08581)", "sequence (P08581 25-1390)": "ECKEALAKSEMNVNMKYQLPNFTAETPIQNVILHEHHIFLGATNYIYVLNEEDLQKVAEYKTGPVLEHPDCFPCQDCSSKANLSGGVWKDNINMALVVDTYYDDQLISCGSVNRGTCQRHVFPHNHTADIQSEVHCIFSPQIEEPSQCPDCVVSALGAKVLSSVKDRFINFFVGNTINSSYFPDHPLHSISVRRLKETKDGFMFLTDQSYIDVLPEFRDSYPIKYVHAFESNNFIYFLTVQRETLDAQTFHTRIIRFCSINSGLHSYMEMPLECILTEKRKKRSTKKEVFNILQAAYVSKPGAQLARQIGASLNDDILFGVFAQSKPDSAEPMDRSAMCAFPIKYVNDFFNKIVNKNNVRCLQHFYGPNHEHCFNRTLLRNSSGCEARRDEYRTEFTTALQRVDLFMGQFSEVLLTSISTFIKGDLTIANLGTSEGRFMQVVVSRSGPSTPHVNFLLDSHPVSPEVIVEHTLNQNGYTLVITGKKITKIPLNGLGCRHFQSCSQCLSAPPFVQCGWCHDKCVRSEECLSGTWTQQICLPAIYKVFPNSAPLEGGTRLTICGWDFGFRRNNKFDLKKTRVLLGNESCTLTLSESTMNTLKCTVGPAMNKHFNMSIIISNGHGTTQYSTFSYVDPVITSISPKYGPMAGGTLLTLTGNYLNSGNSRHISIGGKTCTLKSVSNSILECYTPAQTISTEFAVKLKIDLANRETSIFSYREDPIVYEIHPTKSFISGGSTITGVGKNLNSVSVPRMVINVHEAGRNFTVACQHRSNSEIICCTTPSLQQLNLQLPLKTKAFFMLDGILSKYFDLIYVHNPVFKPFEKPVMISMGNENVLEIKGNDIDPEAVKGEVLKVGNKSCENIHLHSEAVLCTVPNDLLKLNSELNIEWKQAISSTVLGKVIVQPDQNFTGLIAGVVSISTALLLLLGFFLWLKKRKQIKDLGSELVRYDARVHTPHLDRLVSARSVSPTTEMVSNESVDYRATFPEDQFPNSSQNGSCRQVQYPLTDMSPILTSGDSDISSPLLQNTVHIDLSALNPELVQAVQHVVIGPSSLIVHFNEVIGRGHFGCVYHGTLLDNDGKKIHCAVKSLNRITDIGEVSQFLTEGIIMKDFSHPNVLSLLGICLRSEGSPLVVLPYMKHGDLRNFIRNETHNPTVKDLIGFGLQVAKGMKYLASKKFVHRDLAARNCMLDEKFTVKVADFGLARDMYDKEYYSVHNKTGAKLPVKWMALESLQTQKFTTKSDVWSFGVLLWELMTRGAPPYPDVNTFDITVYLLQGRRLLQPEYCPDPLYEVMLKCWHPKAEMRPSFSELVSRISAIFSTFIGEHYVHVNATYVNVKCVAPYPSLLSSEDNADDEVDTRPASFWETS", "assay": "cell-based or functional assay"}, "[5]": {"biological_target": "Human HER3 and MET proteins together on HER3/MET double-positive cells (human) (UniProt P21860)", "assay": "FACS on HCC827 Osimertinib-resistant cells (HER3/MET double-positive)"}, "[6]": {"biological_target": "Human MET protein on the cell surface (human) (UniProt P08581)", "assay": "FACS on NCI-H1703 cells (MET single-positive)"}, "[7]": {"biological_target": "Human HER3 protein on the cell surface (human) (UniProt P21860)", "assay": "FACS on MDA-MB-453 cells (HER3 single-positive)"}}, "note": "Like-named read-outs stand apart in the source and are kept apart here.", "data": [{"substance": "IgG1 isotype control antibody", "values": [{"measurement": "Minimum cell viability (%)", "setting": "[1]", "result": 102, "unit": "%"}, {"measurement": "Minimum cell viability (%)", "setting": "[2]", "result": 92.9, "unit": "%"}, {"measurement": "Minimum cell viability (%)", "setting": "[3]", "result": 90.9, "unit": "%"}, {"measurement": "Minimum cell viability (%)", "setting": "[4]", "result": 78.6, "unit": "%"}, {"measurement": "Maximum fluorescence value", "setting": "[5]", "result": 74}, {"measurement": "Maximum fluorescence value", "setting": "[6]", "result": 74}, {"measurement": "Maximum fluorescence value", "setting": "[7]", "result": 74}]}]}
